This is an account of results in patent US20240279618A1, “RECEPTOR TYROSINE KINASE AGONIST, COMPOSITION FOR CELL CULTURE MEDIUM, AND […] MAINTENANCE COMPOSITION” (SEKISUI CHEMICAL CO., LTD., priority 2021, published 2024).

The test system of one assay is FGFR3-Fc. The experiment in a line: SPR affinity of VHH (monomer) for FGFR3-Fc. The format is binding, human. The note with it: same manner as Example 5. As to the method:
The binding activity of VHH Clone #1 or VHH Clone #2 immobilized on Series S Sensor Chip CAP (manufactured by Cytiva) with respect to FGFR1-Fc was measured using Biacore (registered trademark) T200 (manufactured by Cytiva). Measurement was performed by CAP Single-cycle Kinetics. The temperature was set to 25° C. As a running buffer, 10 mM HEPES (pH 7.4) (Cytiva) including HBS-EP+(150 mM NaCl, 0.5 mM EDTA, and 0.05% surfactant P20) was used. The measurement order for each run is as follows.
2) Measurement of binding activity: The flow rate was set to 30 μL/mL, and VHH Clone #1 or VHH Clone #2 each diluted to 1.85 nM, 5.56 nM, 16.67 nM, or 50 nM, using a running buffer, was allowed to have an association time set to 120 seconds for binding and a dissociation time set to 600 seconds for interaction.
3) Regeneration of sensor chip surface: The flow rate was set to 10 μL/mL, a solution in which Reaneration stock 1 and Regeneration stock 2 (manufactured by Cytiva) were mixed at the ratio of 3:1 was added thereto for 120 seconds to extract the immobilized VHH. Next, analysis was performed with a 1:1 binding model using Biacore T200 Evaluation (software version 2.0, manufactured by Cytiva), and the binding activity was calculated.
The binding activity of VHH Clone #1 to FGFR2-Fc, FGFR3-Fc, or FGFR4-Fc was measured in the same manner as in Example 5.

The next assay deals with T1, FGFR1-DIII (Homo sapiens, UniProt P11362).
T1 construct: The FGFR1 extracellular domain has DII and DIII domains; made in house; host or cells: AAVpro293T cells
T1 sequence (P11362 255-357 limits assumed): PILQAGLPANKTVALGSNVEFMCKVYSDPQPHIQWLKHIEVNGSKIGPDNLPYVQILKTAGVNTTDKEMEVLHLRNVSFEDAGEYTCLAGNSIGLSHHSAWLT
The experiment in a line: Binding activity by biolayer interference (BLI) to FGFR1-DIII. The following applies: 1:1 binding model. The procedure: The FGFR1 extracellular domain has DII and DIII domains. Each of an FGFR1 extracellular domains (hereinafter may be abbreviated as “FGFR1-DIIDIII”, “FGFR1-DII”, or “FGFR1-DIII”) was expressed using AAVpro293T cells as follows, these domains were purified, and an affinity measurement test with VHH Clone #1 was performed by a biolayer interference (BLI) method.
The binding activities of FGFR1-DIIDIII, FGFR1-DII, and FGFR1-DIII to VHH Clone #1 were measured by a biolayer interference method (hereinafter sometimes abbreviated as “BLI”). In BLI, using Octet 384 (manufactured by Fortebio), VHH Clone #1 diluted with a kinetics buffer (0.05% Tween20-containing PBS, pH 7.4) was immobilized on an Anti-Penta-HIS (HIS1K, manufactured by Fortebio) sensor chip, and bound to FGFR1-DIIDIII, FGFR1-DII, and FGFR1-DIII, which had been adjusted from 100 nM in 2-fold serial dilutions, and the dissociation rate was measured.
In the preparation for measurement, a tip of the sensor chip was immersed in 200 μL of the kinetics buffer for 10 minutes in order to hydrate the sensor chip. […]
After completion of the measurements, the measured value of a Reference (only the kinetics buffer) was subtracted from the actual measurement value, and Global Fitting was performed using a 1:1 binding model using Octet software to calculate the binding activity (FIG. 22).

B1: VHH Clone #1: alpaca-derived VHH single-domain antibody (monomer) binding FGFR1, amino acid sequence SEQ ID NO: 17 (protein)
VHH: QLQLVESGGGSVQAGGSLRLSCAASRSLSRFNVWTWYRQAPVKQRELVASITKSGDTNYAESVKGRFIISRDDDKNTVYLQMNNLKSEDTGIYYCAGSYYSGSYLYPSPGGFSVWGQGTQVTVSS
modifications: VHH_Clone_#1
Take B1: in the assay on FGFR3-Fc, the ka is 232000 M⁻¹ s⁻¹ and the kd came out at 0.235 s⁻¹. Further, in the assay with FGFR1-DIII, the “Koff” value turned out to be 0.000351 s⁻¹ and the “Kon” value was 298000 M/s.
